In the supplement of paper PMC12042874:
± gives the uncertainty stated by the source.

Assay: amyloid nucleation score (Sup35N fusion, yeast selection) (log enrichment); library NNK3; higher = more nucleation; inactive = no reads after selection
In short: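 Sup35N fusions to peptides of 20 random codons were expressed in psi-negative yeast, induced 24 hours with 100 μM copper sulfate, and grown 7 days at 30°C on medium lacking adenine and uracil. Input and output plasmid inserts were sequenced by Illumina. The nucleation score is the DiMSum log enrichment of output over input reads, centred on the mode score of non-aggregating sequences. Sequences with under 100 input reads were excluded.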
For RALKRFYNVIFYFRSYVPVS, the amyloid nucleation score was “inactive”. In the case of YWQHWWL, the amyloid nucleation score is reported as “inactive”. With NRLFTH the amyloid nucleation score was “inactive”. For LGGYFLFNIITVGSTGMRKH, the amyloid nucleation score was 2.06 ± 0.089. For RTCSLRCFCYCHLYFYDVNT, the amyloid nucleation score was “inactive”. For YLYGGQRVGSF, the amyloid nucleation score was “inactive”. HINISFISYYRRRMYYNVCG showed an amyloid nucleation score of 1.62 ± 0.092. For FVSGYVVALCYPWQGCPGVC, the amyloid nucleation score was 1.97 ± 0.093. For HLTHVYVADSVGLKLFVYHP, the amyloid nucleation score was 1.9 ± 0.072. With KNQNMMMSSQFSMYCWFRLT the amyloid nucleation score was “inactive”. For FNRKCVSVCRVRGGICWRSQ, the amyloid nucleation score was “inactive”. With IRSNGTFTPWEPLSVIWCTK the amyloid nucleation score was “inactive”. With WFLFRINQFKL the amyloid nucleation score was “inactive”. In the case of RFCRRVHMRLDAVGTCVRWW, the amyloid nucleation score is reported as “inactive”. In the case of PLQDL, the amyloid nucleation score is reported as “inactive”. QSLSNKVMLLSGRVNQVDVA showed an amyloid nucleation score of -0.935 ± 1.5. With ATTADLDRCSLFPKLRILRG the amyloid nucleation score was “inactive”. In the case of WLCWQHSDLMNRDCNGLTLG, the amyloid nucleation score is reported as “inactive”. Work on LHRLMLTRCVPGFV yielded an amyloid nucleation score of -0.443 ± 0.98. In the case of FFNVMVS, the amyloid nucleation score is reported as “inactive”. With RRTVYRHF the amyloid nucleation score was “inactive”. In the case of RLRYIGSILLLRRKVVFLMH, the amyloid nucleation score is reported as “inactive”. For VWLMGMTYF, the amyloid nucleation score was “inactive”. With SRCFNSGTYPEICVHRVLKV the amyloid nucleation score was “inactive”. In the case of IIGSFC, the amyloid nucleation score is reported as “inactive”. In the case of TLLVCNMWNFSRNIMVHIGV, the amyloid nucleation score is reported as “inactive”. With DQHFCKSEREGTRYWLRLTI the amyloid nucleation score was “inactive”. With LVCNRWPNCANCRCRP the amyloid nucleation score was “inactive”. For CYCPHPNGESFCFSVSWDTN, the amyloid nucleation score was “inactive”. With LSVSYTLALTALLRHRERVW the amyloid nucleation score was “inactive”. For IKFSEWMNVGIVWWHYLISG, the amyloid nucleation score was “inactive”. For WFGLIFFLICLYTPQLSLKL, the amyloid nucleation score was “inactive”. With QEWKQWLMSWTSRKAFSLKS the amyloid nucleation score was “inactive”. With NYPIA the amyloid nucleation score was “inactive”. In the case of TTFNRFVYPYGERYLG, the amyloid nucleation score is reported as “inactive”. In the case of QKLVMTYPVIVHNMVNLERY, the amyloid nucleation score is reported as 1.13 ± 0.074. In the case of LFLVA, the amyloid nucleation score is reported as “inactive”. In the case of MCFEVLHACRYFVRHSSQRI, the amyloid nucleation score is reported as “inactive”. For ETDVHSYFVSLYSYPFAVEP, the amyloid nucleation score was “inactive”. With SEPIWYFRGFFCGLGLIWGW the amyloid nucleation score was -0.389 ± 0.98. In the case of CFIWMSYGVPLNCNCLPQRP, the amyloid nucleation score is reported as “inactive”. With YPLCEL the amyloid nucleation score was 0.193 ± 0.19. In the case of SSNRGFIIMFEFLASWGFLA, the amyloid nucleation score is reported as “inactive”. In the case of IGSFVKDKLSRRIGTGRMEI, the amyloid nucleation score is reported as “inactive”. In the case of VNVVEFTRFRAW, the amyloid nucleation score is reported as 0.585 ± 0.35. For SCILCIFPVRLVFYMM, the amyloid nucleation score was “inactive”. For MKDASFQP, the amyloid nucleation score was “inactive”. With KYVRVLHCIDLFRSSLSHIG the amyloid nucleation score was “inactive”. In the case of ARKMTIRPPLFPAWHSFELK, the amyloid nucleation score is reported as “inactive”. With LWPAAQLLLKRE the amyloid nucleation score was “inactive”. For VARNGDLF, the amyloid nucleation score was “inactive”. With YGRDQSRYYLYSSMGEV the amyloid nucleation score was 0.148 ± 0.72. With SDIIM the amyloid nucleation score was “inactive”. For GILRQRIYFSM, the amyloid nucleation score was “inactive”. FLGDYRILSLLFYI gave an amyloid nucleation score of 2.49 ± 0.053. With KGVFRNAFELFKYHFSHAGM the amyloid nucleation score was “inactive”. With NDFVRSADKDFGSDRFSNVV the amyloid nucleation score was “inactive”. For VVSRVMTGSHHVRQFRM, the amyloid nucleation score was “inactive”. For VTLQSSSQVSSCVNNSR, the amyloid nucleation score was “inactive”. In the case of LMDPNGLVQGLFYMELLT, the amyloid nucleation score is reported as “inactive”. With AHVKLNDVFSWI the amyloid nucleation score was “inactive”. QCVVVKCCWRDNRWLGSDLV showed an amyloid nucleation score of -0.178 ± 0.54. With TWYRCD the amyloid nucleation score was “inactive”. With WQCNCGASICASHKKCANMN the amyloid nucleation score was 0.128 ± 0.3. With AGNIACVLSLCTYNARYRTR the amyloid nucleation score was 3.19 ± 0.068. For FDRYYVSPLRVLHQVGCEIL, the amyloid nucleation score was “inactive”. In the case of IDYRMYYY, the amyloid nucleation score is reported as “inactive”. For DYALI, the amyloid nucleation score was “inactive”. In the case of TRNPDKLCANVLDNRH, the amyloid nucleation score is reported as “inactive”. For KVTLRNRFISMPNFMIEP, the amyloid nucleation score was “inactive”. For GDFTSLDVVYYGNDCTLF, the amyloid nucleation score was “inactive”. In the case of SSLVL, the amyloid nucleation score is reported as “inactive”. For VSYTRTIPLKGSNLMLIWF, the amyloid nucleation score was “inactive”. With EEPNG the amyloid nucleation score was “inactive”. In the case of DLVRITMIVYYVAASHMVAS, the amyloid nucleation score is reported as “inactive”. With NYECNGWVGFVLTVPYGTIW the amyloid nucleation score was “inactive”. In the case of SRDFVKYISEERS, the amyloid nucleation score is reported as “inactive”. In the case of LYVLWRLGKQCHTFWFFSSI, the amyloid nucleation score is reported as 0.265 ± 0.44. In the case of GKDVHMKGNSKRSVWYVPQG, the amyloid nucleation score is reported as “inactive”. For MLDAQSASWYYFRGSLFDVR, the amyloid nucleation score was “inactive”. Substance HCHDVGVLLIKFCNNLWCSH has an amyloid nucleation score of 1.99 ± 0.1. Work on DTGFCYKFNYIPVDVIICIC yielded an amyloid nucleation score of 1.32 ± 0.12. IVSLALSFFLDHSQVFCLNS gave an amyloid nucleation score of 1.36 ± 0.15. For FFIDYIHTYRYESSASMS, the amyloid nucleation score was “inactive”. With CFSAASTVKNMIEGCCRGMY the amyloid nucleation score was “inactive”. With FPHRMLRPCYESDTFPPWTG the amyloid nucleation score was “inactive”. With YIAFCSRDSFRLVMRHNSGI the amyloid nucleation score was “inactive”. ASCSVVEKISFTDPGIQWIR gave an amyloid nucleation score of -0.032 ± 1.1. With LHVLDYDPDLRCFQMLYMCG the amyloid nucleation score was “inactive”. With VVNIRDATWAFKLLCGEAHV the amyloid nucleation score was “inactive”. For IWVGRTDFWFWHVTGEDCLG, the amyloid nucleation score was “inactive”. For YVLRCVFSSDNKDGAWTTWI, the amyloid nucleation score was “inactive”. For NYWIHVNVAMRVNYYRFFMF, the amyloid nucleation score was “inactive”. With YSYRVRTSFVENRKCA the amyloid nucleation score was “inactive”. Substance HFARDPLSERSKFPLIF has an amyloid nucleation score of 0.623 ± 0.15. For NACSARMGVVYNMLPSGESR, the amyloid nucleation score was “inactive”. For TFLMAYSWSCRQRNCKGFIY, the amyloid nucleation score was “inactive”. In the case of FSISKLGCCYVTAMVVSASR, the amyloid nucleation score is reported as “inactive”. FFDTTYLLNSGMNVVLDAYF showed an amyloid nucleation score of 1.76 ± 0.097. For DLSPRYL, the amyloid nucleation score was “inactive”. Work on VFMCLANYMFPIPGNRHVPP yielded an amyloid nucleation score of 0.053 ± 0.75. For VECSIVLCII, the amyloid nucleation score was 2.26 ± 0.051. For LQRGTQVYRCSLSFVRNVRF, the amyloid nucleation score was “inactive”. In the case of AEARTPIECVC, the amyloid nucleation score is reported as “inactive”. With FLSCNTCWGMTNANLSDNFN the amyloid nucleation score was 2.05 ± 0.071. With AHEQTQSDLPGVELPRWDR the amyloid nucleation score was “inactive”. With HRWNMSWFGYFNLRLSVIET the amyloid nucleation score was “inactive”. With RCSCCCCNALANDRRVCMVE the amyloid nucleation score was “inactive”. With SAMFTGNLYFDFVDPCYSGW the amyloid nucleation score was “inactive”. In the case of EVEIRWPCLKVVFLFLVH, the amyloid nucleation score is reported as “inactive”. With FKKCVDLKHYNVSMDVRCVL the amyloid nucleation score was “inactive”. For YSRDSGCRIKVVPALTVRGR, the amyloid nucleation score was “inactive”. For AGIVRWVVFISSYWGPLLLL, the amyloid nucleation score was “inactive”. For TLVRTDPRGTVSPPTFPCEW, the amyloid nucleation score was “inactive”. With TNKRTYFWVF the amyloid nucleation score was 1.02 ± 0.097. For RNVVAESRKSWGHCVRVTYT, the amyloid nucleation score was “inactive”. In the case of LFIRQG, the amyloid nucleation score is reported as “inactive”. With VPFDGLFWYCRCR the amyloid nucleation score was “inactive”. For DLSRDMTNVSCRKSGLWGSG, the amyloid nucleation score was “inactive”. With MILLLSGGCVTESFWG the amyloid nucleation score was “inactive”. Substance ETFVGLEVNWNSCNCFIVQE has an amyloid nucleation score of 1.87 ± 0.076. With DALAVSINCSLFRCCSM the amyloid nucleation score was 3.3 ± 0.055. In the case of RNKSVVPHVLRELCFMVWLV, the amyloid nucleation score is reported as “inactive”. KALTRRIILHWK gave an amyloid nucleation score of 0.711 ± 0.28. For GTNDDESRRRRREWD, the amyloid nucleation score was “inactive”. For ASYYF, the amyloid nucleation score was “inactive”. TFTLSCFTCNGFVSDVVHCD gave an amyloid nucleation score of 3.21 ± 0.054. For RLNHKVFRSLCKKFLRWHGS, the amyloid nucleation score was “inactive”. In the case of GRKDAKR, the amyloid nucleation score is reported as “inactive”. For VKVLWFSDCSSLYCHSVDGP, the amyloid nucleation score was “inactive”. With RECVMETWSQVGRWFTCVRV the amyloid nucleation score was “inactive”. For LISMVYLNVRLCQ, the amyloid nucleation score was “inactive”. For LSNRGLIYHEGTRICATYRE, the amyloid nucleation score was 0.719 ± 0.22. For VCGNMVSLVVHPFLFSYVCD, the amyloid nucleation score was “inactive”. For CWGST, the amyloid nucleation score was “inactive”. For KRRMRGALRVRVNSTHCWYV, the amyloid nucleation score was “inactive”. For NFFCASRVMGLLMIF, the amyloid nucleation score was “inactive”. For HNVCTKAKTRMYRVERS, the amyloid nucleation score was “inactive”. In the case of FIPPSLCIITS, the amyloid nucleation score is reported as “inactive”. With LLVCDREVAFAVACSFPCKR the amyloid nucleation score was “inactive”. In the case of RHFDSMTINLYTTSLTFFAN, the amyloid nucleation score is reported as “inactive”. In the case of YASVRVGMPSCDECGMFCLE, the amyloid nucleation score is reported as “inactive”. In the case of TCLLFVTHFNWYNTLVEGTI, the amyloid nucleation score is reported as 0.989 ± 0.15. For STIKFTGFVYFSN, the amyloid nucleation score was “inactive”. For FYKLTLRSVRFLSFTYRIGA, the amyloid nucleation score was “inactive”. With HIRRCEVTNTF the amyloid nucleation score was “inactive”. With WIKLNLTYAHWWNMV the amyloid nucleation score was “inactive”. With CVRVSPRSDYNQMMVRMGQW the amyloid nucleation score was “inactive”. Substance EMRSFVGNSCI has an amyloid nucleation score of -0.613 ± 1.5. With FKDVSVPIR the amyloid nucleation score was “inactive”. In the case of LNKHSAYGTDLVYSRLKFVL, the amyloid nucleation score is reported as “inactive”. For TMNAICLNPVS, the amyloid nucleation score was “inactive”. With CQLAV the amyloid nucleation score was “inactive”. With VLDLTKYSFLTI the amyloid nucleation score was “inactive”. In the case of DDSMHDGLRVTRRVCKRGSF, the amyloid nucleation score is reported as “inactive”. In the case of YYSLWRSIIVEACRFC, the amyloid nucleation score is reported as “inactive”. In the case of LTKGLSAMLQFRWRAVFKNG, the amyloid nucleation score is reported as “inactive”. With HRSISLRLYWNIHVKCFLTY the amyloid nucleation score was “inactive”. For LIGNTSGMILHSTITDEAWL, the amyloid nucleation score was “inactive”.
